Paper PMC13083955

Experiments:
[1] = target: Dsk2 UBA (Saccharomyces cerevisiae) (UniProt P48510); settings: cited from earlier work
[2] = target: full-length Dsk2 (yeast (S. cerevisiae)) (UniProt P48510)

| Substance | Kd [1] [µM] | phase separation of Dsk2 alone, saturation concentration (csat) against temperature (20 mM NaPhosphate pH 6.8, 150 mM NaCl, 7.5% PEG 8000, 0.5 mM EDTA) [2] [µM] |
| --- | --- | --- |
| Dsk2 UBL (from UniProt P48510) | 80 | – |
| full-length Dsk2 (from UniProt P48510 1-373) (natural protein) | – | 10 |
